30 sequences from the supplement of paper PMC9170038 can be followed below.

This data set deals with MS2 coat protein. Put plainly: apparent KD of MS2 coat protein; designed switch direction (-1 OFF switch, 1 ON switch): -1; higher = weaker reporter binding. In short, it runs like this: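 Designed RNA switches were transcribed on Illumina chips by stalled E. coli RNA polymerase and titrated with SNAP-549-labelled MS2 coat protein from 0.7 or 1.5 nM, doubling to 3 µM. Step length ran from 0.8–1.5 h at the lowest concentration to 10–20 min at the highest. The apparent KD is the median over clusters for each design, from curve-fitted normalised cluster fluorescence.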

Setting [1] is: input ligand: microRNA oligo, concentration not stated.
[2] abbreviates: Eterna round: R95, input ligand: FMN 200 uM.
[3] abbreviates: Eterna round: R95, input ligand: microRNA oligo, concentration not stated.
The mark [4] stands for this setting: Eterna round: R95, input ligand: none.

“AUAUUGUGAGGAUAUGUACUUAGUAUCGAAAGAUACUAAGUUCAGAAGGCACAUGAGGAUCACCCAUGUUUCUC [Long static hairpin v13] (Eterna round: R97, puzzle: Exclusion 4)”: the “apparent KD of MS2 coat protein” value amounted to 805 nM (input ligand: FMN 200 uM) and 63.5 nM (input ligand: none).
On to “GAUGGCUUAGGAUAUACAUAGAAGAAUUGAACUUGGAUUAUACAUGAGGAUCACCCAUGUAGAAGGAGGUCAUC [ExGluten 4 - Jieux - Exclusion 2] (Eterna round: R97, puzzle: Exclusion 2)”, for which the “apparent KD of MS2 coat protein” value runs as follows: (input ligand: FMN 200 uM) 53 nM; (input ligand: none) 29.1 nM.
The corresponding values for “UUAAUGGUUGUGAGGAUAUCGGAUAGAUAGAUAUUCGAGAAGGCACAUGAGGAUCACCCAUGUGUGAUUAGAAA [JR_BMEx4_Sub049] (Eterna round: R97, puzzle: Brourd's mod of Exclusion 4)” are 260 nM and 24.6 nM.
The corresponding values for “UUUAGUUCAGGAUAUGUAGAUUUUAACAUGAGGAUCACCCAUGUAGAUCCUGAUCCUGCUACAGAAGGGAAGAUUU [Mat - Exclusion 5 - Eli Mod - D7] (Eterna round: R97, puzzle: Exclusion 5)” are 22.3 nM and 23.9 nM.
On to “ACAAAACAUGAGGAUCACCCAUGUGAGGAUAUGCGAAACAAACAAACAAACAAACAAAGCAGAAGGCACAACAA [Ex 1 Tesla 3] (Eterna round: R96, puzzle: Exclusion 1)”, for which the “apparent KD of MS2 coat protein” value under setting [1] turned out to be 15.6 nM.
With “GCCGGAUUUGUGAGGAUAUGCCUAUGGAUACAUAGGCAGAAGGCACAUGAGGAUCACCCAUGUACCUCACCGGC [JL-BMX4-4.23 Eli mod] (Eterna round: R97, puzzle: Brourd's mod of Exclusion 4)”, the “apparent KD of MS2 coat protein” value was 141 nM (input ligand: FMN 200 uM) and 21.4 nM (input ligand: none).
In the case of “CUUAGCCUAAAAUCACGCAAGCUUUCUGCUUGUCUUAAGACAUGAGGAUCACCCAUGUCCGGGCUGAACUUAUGGAA [Inve] (puzzle: Sensor v3, turn-off variant 2)”, the “apparent KD of MS2 coat protein” value is, setting by setting: under setting [2], 18.8 nM; under setting [3], 22.5 nM.
In the case of “AUAAUGUGAGGAUAUCAGUCGACUAGCUUCGGCUAGUCGACUGAGAAGGCACAUGAGGAUCACCCAUGUAGAUC [E4/17-A1] (Eterna round: R97, puzzle: Exclusion 4)”, the “apparent KD of MS2 coat protein” value is, setting by setting: (input ligand: FMN 200 uM) 59 nM; (input ligand: none) 925 nM.
Consider “AUAAUACAUGUAGGAUAUCUGCACGAUUAGUGCAGAGAAGGACAUGAGGAUCACCCAUGUAAUUAAGAUCAAUUAUUAAAUUAU [ENG1/3-D1] (Eterna round: R96, puzzle: Exclusion NG 1)”, for which the “apparent KD of MS2 coat protein” value runs as follows: (input ligand: FMN 200 uM) 238 nM; under setting [1], 63.9 nM; (input ligand: none) 57 nM.
As for “GGUUGGCGAGGAUAUACAUGAGGAUCACCCAUGUGAGAGAAAGAAGUGAGGAAGAAUAGUAGAAGGCGCUGACG [salish99_ex3_r3_056] (puzzle: Exclusion 3)”, the “apparent KD of MS2 coat protein” value was determined as 746 nM under setting [2], 56.1 nM under setting [3] and 69.1 nM under setting [4].
The corresponding values for “AUGAGGUUAGGAUAUACAUGAGGAUCACCCAUGUUGAAAGGUUAGAUAGGAGAAGAUAGUAGAAGGAACAAAGA [JR_Exclu3_Sub053] (puzzle: Exclusion 3)” are 31.8 nM, 37.2 nM and 43.1 nM.
Take “UGCAGACGAGGAUAUGAUAAAGAUCACAUGAGGAUCACCCAUGUAGCGUCGAUAGACGCAUCAGAAGGCGUCUGCA [E5/1-A2] (Eterna round: R97, puzzle: Exclusion 5)”: the “apparent KD of MS2 coat protein” value reads like this: (input ligand: FMN 200 uM) 16.3 nM; (input ligand: none) 16 nM.
For “UACAUGAGGAUCACCCAUGUUUUGUCGUGUAUGGUAUUUAUCUAGGAUAUCAUUAUAUUUAUUUAUGAGAAGGAGAAUAUUAAU [JMF's solution 97] (Eterna round: R96, puzzle: Exclusion NG 3)”, the “apparent KD of MS2 coat protein” value worked out at 29.9 nM (input ligand: FMN 200 uM), 21.9 nM under setting [1] and 27.6 nM (input ligand: none).
Turning to “CAAACCAGAGGAUAUGCGCAUAGAUCAGACUUUGUUUCUUAACAUGAGGAUCACCCAUGUAGAAGGCUGUAAAA [Ex2 #73] (Eterna round: R97, puzzle: Exclusion 2)”, the “apparent KD of MS2 coat protein” value by setting is: (input ligand: FMN 200 uM) 18.4 nM; (input ligand: none) 17.6 nM.
As for “CGCGUAUGAGGAUAUGCAUAAAAGGGUGCACUGAGUCUGAGACAUGAGGAUCACCCAUGUAGAAGGCGUGCGCU [Beerteon] (puzzle: Exclusion 2)”, the “apparent KD of MS2 coat protein” value under setting [3] turned out to be 13.6 nM.
“AAGUCAACAUGAGGAUCACCCAUGUCCAAGUUGAUGUCCUGUGAGGAUAUGUGUAAACGGCCGGCACAGAAGGCACAAGACGCG [Eternabot solution 5] (Eterna round: R96, puzzle: Exclusion NG 3)”: the “apparent KD of MS2 coat protein” value worked out at 32.3 nM (input ligand: FMN 200 uM), 30.4 nM under setting [1] and 34.5 nM (input ligand: none).
For the sequence “UGAUCUUGUGUCAGGAUAUGCUGGUCUCCUCUCCAGCAGAAGGGACAUGAGGAUCACCCAUGUUCUCUCUUUUU [Magic-11] (puzzle: Brourd's mod of Exclusion 4)”, the “apparent KD of MS2 coat protein” value under setting [3] worked out at 11.5 nM.
As to “GAUUAUGCGAGCUUUAGGGACAUGAGGAUCACCCAUGUUCGUCUUAUUGAUCUGGGUACGCUAACAUACCUAAAUCU [JMF 42] (puzzle: Sensor v3, turn-off variant 1)”, the “apparent KD of MS2 coat protein” value runs as follows: under setting [2], 82.2 nM; under setting [3], 89.2 nM; under setting [4], 96.7 nM.
In the case of “AGGGUGGGAGGAUAUCCAAUAUAUGACAUGAGGAUCACCCAUGUUUCCACUCGUACCUCCGGAGAAGGCCCUCCCA [Ex5 #22] (Eterna round: R97, puzzle: Exclusion 5)”, the “apparent KD of MS2 coat protein” value reads like this: (input ligand: FMN 200 uM) 21.5 nM; (input ligand: none) 22.1 nM.
Turning to “AUGCCGAGUGUAGGAUAUGGCCCGGAACCACGGCCAGAAGGACAUGAGGAUCACCCAUGUGGCCCGAUAUACACGGUAUCAGAC [Eternabot solution 1] (Eterna round: R96, puzzle: Exclusion NG 1)”, the “apparent KD of MS2 coat protein” value by setting is: (input ligand: FMN 200 uM) 44.7 nM; under setting [1], 17.7 nM; (input ligand: none) 24.4 nM.
Take “ACAAGCUUUUGCUCGUCUUACAUGAGGAUCACCCAUGUCGGGUGCUUGCUUACGUCCAGCAUCUGGACCGUAGCAGU [-24.6, -43.1 kcal, 19% A] (Eterna round: R97, puzzle: Sensor, turn-off variant 1)”: the “apparent KD of MS2 coat protein” value is 142 nM (input ligand: FMN 200 uM) and 165 nM (input ligand: none).
As for “AUAAAUCAUGUAGGAUAUGCGUGGCGAAGCUAUGCAGAAGGACAUGAGGAUCACCCAUGUUCUUCCGUCUGCGUACAGACGGAA [Mat - Exclusion NG 1 - Mod of JL - D39] (Eterna round: R96, puzzle: Exclusion NG 1)”, the “apparent KD of MS2 coat protein” value (input ligand: FMN 200 uM) amounted to 297 nM, the “apparent KD of MS2 coat protein” value under setting [1] came to 28.5 nM and the “apparent KD of MS2 coat protein” value (input ligand: none) amounted to 34.9 nM.
For “GGCCCUAAGGUCAGAUCCACAAGCUUUUUGCUCGUUUUAACAUGAGGAUCACCCAUGUCUAGUGGAUUUGAUCCUCU [Sensor v3, turn-off variant 2 (MOD of Indiso v.8)] (puzzle: Sensor v3, turn-off variant 2)”, the “apparent KD of MS2 coat protein” value runs as follows: under setting [2], 27.9 nM; under setting [3], 9.69 nM; under setting [4], 33.5 nM.
Consider “AGUAUGCGGCAGGAUAUCCAUCCGCGGAAAGGUGGAGAAGGGCUGACAUGAGGAUCACCCAUGUGCGUCCUGUA [salish99_ex6_r4_029] (Eterna round: R97, puzzle: Exclusion 6)”, for which the “apparent KD of MS2 coat protein” value by setting is: (input ligand: FMN 200 uM) 33.5 nM; (input ligand: none) 20.4 nM.
The corresponding values for “UUAGCGUAAGUAAGGAUAUGCUGGUCGAAAGACCAGCAGAAGGUACAUGAGGAUCACCCAUGUUGAUUCGUUGC [Mod of JL 13 - Jieux - Brourd's mod of Exclusion 4] (Eterna round: R97, puzzle: Brourd's mod of Exclusion 4)” are 284 nM and 39.7 nM.
In the case of “UGAUCUAGCGGAGGAUAUACAUGAGGAUCACCCAUGUAUAGUCUAUGACCGUAGUCGUGGAACGUGUAGAAGGCCGCUAGAUCU [JL ENG2 3.78] (Eterna round: R96, puzzle: Exclusion NG 2)”, the “apparent KD of MS2 coat protein” value by setting is: (input ligand: FMN 200 uM) 18.4 nM; under setting [1], 10.2 nM; (input ligand: none) 14.4 nM.
For the sequence “UCAAAGUCAGGAUAUACAUGAGGAUCACCCAUGUAAAAUUUUAAUUUAAUUUGAAGGUGUAGAAGGGACAAACC [Ex3 #33] (Eterna round: R97, puzzle: Exclusion 3)”, the “apparent KD of MS2 coat protein” value turned out to be 18.3 nM (input ligand: FMN 200 uM) and 31.6 nM (input ligand: none).
For the sequence “GGUCAGACGGUAGGAUAUCCAUAUCGAGUGACCCUUUUAUAACAUGAGGAUCACCCAUGUCGGUGGGAGAAGGGCCGUACGGCG [salish99_ExNG02_R04_003] (Eterna round: R96, puzzle: Exclusion NG 2)”, the “apparent KD of MS2 coat protein” value (input ligand: FMN 200 uM) amounted to 445 nM, the “apparent KD of MS2 coat protein” value under setting [1] amounted to 304 nM and the “apparent KD of MS2 coat protein” value (input ligand: none) came out at 401 nM.
For “UAUUAGCAAGCAAAUGGGUACAUGAGGAUCACCCAUGUGCUCGUCUUAUAAGGUACUGUGACGACAGUCACGGUACC [mod--Eli4] (Eterna round: R97, puzzle: Sensor, turn-off variant 1)”, the “apparent KD of MS2 coat protein” value reads like this: (input ligand: FMN 200 uM) 24.5 nM; (input ligand: none) 25.3 nM.
As for “CAAAUGGUUUAAGGAUAUUACAUGAGGAUCACCCAUGUUAUCGGGAUGCUUCUCUUAAAAUACGGUAAGAAGGUAGACCUAAUC [Ceveso] (Eterna round: R96, puzzle: Exclusion NG 2)”, the “apparent KD of MS2 coat protein” value by setting is: (input ligand: FMN 200 uM) 451 nM; under setting [1], 91 nM; (input ligand: none) 84.9 nM.
